Consider six molecules from paper PMC10022624, “A mini-TGA protein modulates gene expression through heterogeneous association with transcription factors” (Plant Physiology, 2022).

In series [1] the target is HA-tagged StTGA2.3, expressed in N. benthamiana (potato (Solanum tuberosum)).
For series [2], the target named is T1, StTGA2.3 (Solanum tuberosum cv. Rywal, UniProt A0A9F1U446 1-327).
T1 sequence: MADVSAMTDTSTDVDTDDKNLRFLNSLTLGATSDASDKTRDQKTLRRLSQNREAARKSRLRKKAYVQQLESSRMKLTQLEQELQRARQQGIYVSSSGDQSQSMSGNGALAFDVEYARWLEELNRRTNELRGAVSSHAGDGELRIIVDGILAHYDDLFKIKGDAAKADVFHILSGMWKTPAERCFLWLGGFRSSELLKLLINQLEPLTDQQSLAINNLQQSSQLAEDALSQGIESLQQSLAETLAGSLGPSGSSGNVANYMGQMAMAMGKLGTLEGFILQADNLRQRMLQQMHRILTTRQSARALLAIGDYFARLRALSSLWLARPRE
As to the kind of experiment: SPR; 1 mM Mg2+; interaction negligible; SPR Biacore T200, 25 C, 25 mM Tris pH 7.4, 140 mM NaCl (180 mM for StTGA2.1 alone), 1 mM MgCl2, 0.005% P20. Particulars: protein: ivt; tags: C-terminal GS peptide; chain copies: 2; 5' overhang 15 nt on strand 1. In general terms: SPR reads the build-up and loss of mass on a sensor chip optically.

Series [3] has as its target T2, StTGA2.1 (mini-TGA) (Solanum tuberosum cv. Rywal, UniProt A0A9F1U434 1-270).
T2 sequence: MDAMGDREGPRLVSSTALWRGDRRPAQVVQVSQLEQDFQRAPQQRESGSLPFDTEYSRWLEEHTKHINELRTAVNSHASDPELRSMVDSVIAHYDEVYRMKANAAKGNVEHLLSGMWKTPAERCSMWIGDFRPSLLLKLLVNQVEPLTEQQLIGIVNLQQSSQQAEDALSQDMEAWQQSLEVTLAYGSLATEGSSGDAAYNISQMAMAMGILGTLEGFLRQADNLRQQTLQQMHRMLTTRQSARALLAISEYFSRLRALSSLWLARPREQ
As to the kind of experiment: SPR; 18.75-300 nM protein; 180 mM NaCl; 1 mM Mg2+; SPR Biacore T200, 25 C, 25 mM Tris pH 7.4, 140 mM NaCl (180 mM for StTGA2.1 alone), 1 mM MgCl2, 0.005% P20. The following applies: protein: recombinant; tags: N-terminal His6; chain copies: 2; 5' overhang 15 nt on strand 1.

Series [4] concerns the molecule itself. As to the kind of experiment: SEC; His6-tagged StTGA2.1; oligomeric state from elution volume against the Gel Filtration LMW calibration kit; 30 mM Tris pH 7.5, 400 mM NaCl. In general terms: SEC sorts molecules by how far they enter the pores of the column.
For series [5], the target named is T1, StTGA2.3. Nature of the series: SPR; 1 mM Mg2+; dose-dependent response; SPR Biacore T200, 25 C, 25 mM Tris pH 7.4, 140 mM NaCl (180 mM for StTGA2.1 alone), 1 mM MgCl2, 0.005% P20. Particulars: protein: ivt; tags: C-terminal GS peptide; chain copies: 2; 5' overhang 15 nt on strand 1.
The target of series [6] is T3, StTGA2.3;StTGA2.1 (mini-TGA) (Solanum tuberosum cv. Rywal;Solanum …, UniProt A0A9F1U446;A0A9F1U434 1-327;1-270, |).
T3 sequence 1: T1 sequence
T3 sequence 2: T2 sequence
Nature of the series: SPR; premixed with 300 nM StTGA2.1; higher response than StTGA2.3 alone; SPR Biacore T200, 25 C, 25 mM Tris pH 7.4, 140 mM NaCl (180 mM for StTGA2.1 alone), 1 mM MgCl2, 0.005% P20. Particulars: protein: ivt;recombinant; tags: C-terminal GS peptide;N-terminal His6; copies: 1;1; 5' overhang 15 nt on strand 1.

In general, stoichiometry N refers to a count of units in the complex or per binding partner.

Turning to “StTGA2.1, GFP- or HA-tagged, expressed in N. benthamiana (natural protein)”, in series [1], the StPRX07::LucF promoter activity (luciferase transactivation assay) in N. benthamiana leaves coexpressing GFP-tagged StTGA2.1 and BFP-tagged StTGA2.3, compared to control was above 2 fold.

B1: PRX15p_1 (dsDNA)
DNA 1: GTTACTACTCGAGCGTTTAATAATGATGACATTTG
DNA 2: CAAATGTCATCATTATTAAA
On to B1, for which the binding result in series [2] and in series [3] was “no binding” each time.

B2: His6-tagged StTGA2.1, recombinant (natural protein, potato (Solanum tuberosum), UniProt A0A9F1U434 1-270, looked up)
chain: T2 sequence
notes: StTGA2.1, potato (Solanum tuberosum) cultivar Rywal; full-length cds in pMCSG7; C-terminal region printed as aa 47-240; Dimer by SEC elution volume; The tag is removable by TEV protease; not shown: His6, N-terminal, kept
As to B2, the “stoichiometry N” value in series [4] is 2.

B3: PRX46p (dsDNA)
DNA 1: GTTACTACTCGAGCGTGAACCTGAGGTCAACCGTT
DNA 2: AACGGTTGACCTCAGGTTCA
Turning to B3, the binding result in series [2] and in series [3] was “no binding” in each case.

B4: PRX07p_1 (dsDNA)
DNA 1: GTTACTACTCGAGCGTGTGCCCAACGTCACAATCC
DNA 2: GGATTGTGACGTTGGGCACA
Turning to B4, the results for the binding result in series [5], in series [3] and in series [6] were “binds”, “no binding” and “binds”, respectively.

B5: PRX07p_2 (dsDNA)
DNA 1: GTTACTACTCGAGCGTTAGGGGTGACGTTTCCAAT
DNA 2: ATTGGAAACGTCACCCCTAA
Take B5: the binding result was “binds” in series [5], “no binding” in series [3] and “binds” in series [6].
